Measurements: the supplement of paper PMC12042874
± gives the uncertainty stated by the source.

Experiment: amyloid nucleation score (Sup35N fusion, yeast selection) (log enrichment); library NNK1; higher = more nucleation; inactive = no reads after selection
How it was run: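 Three technical output replicates were used for random libraries. Psi-negative yeast expressing peptides of 20 random codons fused to Sup35N were induced with 100 μM copper sulfate for 24 hours and grown 7 days at 30°C on medium lacking adenine and uracil, and input and output plasmid inserts were Illumina-sequenced, excluding sequences with under 100 input reads. The nucleation score is the DiMSum log enrichment of output over input reads, centred on the mode score of non-aggregating sequences.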

| Substance | amyloid nucleation score |
| --- | --- |
| NLSSSRSVVKNLTFQMWNTS | 4.45 ± 0.063 |
| ACPVGTRFTVATTFRRMLCE | 0.312 ± 0.47 |
| DLMGSWYDLRYMKGLKGK | -0.265 ± 0.13 |
| YEKVSDQGNLGLASIYLAGK | -0.159 ± 0.22 |
| FGYNILYINQSTWLLNFCQV | 6.56 ± 0.049 |
| GDIALS | -0.292 ± 0.41 |
| SLRLFEFFWLTFGSSQIHLA | -0.032 ± 0.5 |
| IKTNHKDNLWNNFNLYDKAH | 0.233 ± 0.31 |
| WFIPNKGTYREAYFLSCLGS | -0.954 ± 1.3 |
| CAFEAGLWTSDFLNEPVYHY | -0.126 ± 0.3 |
| ISFLFMCYLWQGNNS | 6.24 ± 0.066 |
| LWLTHKCYCLDSNTCIKCEL | -0.312 ± 0.38 |
| TWRQNSRGNRASNCYVRSLS | inactive |
| FMRDCSYI | 0.687 ± 0.79 |
| VMLAGSDWLNGFRAESFCGI | -1.35 ± 2.1 |
| VWIALFDVTDDMSARTDIWS | -0.876 ± 0.74 |
| GCLNDCGSLVWYGVCKSCLP | 0.446 ± 0.6 |
| FSKAMNFRDRTSSQSQ | -0.581 ± 1.2 |
| FELICNRNGNSPRYAFKKIP | 0.976 ± 0.35 |
| PCMFYWTVLGRLRTKPPSGV | -0.153 ± 0.44 |
| CDEGWEESNSTD | -0.522 ± 1.6 |
| RNLLNFFKISDTSTALDLLY | -0.728 ± 0.52 |
| SWMNS | 0.759 ± 0.55 |
| KFLLNRVLTDMDLYT | 0.135 ± 0.37 |
| QDQSGPVLASCIWYLCSETN | 7.403 ± 0.052 |
| FDDCFSLLIVPDSTVITKEQ | 0.444 ± 0.4 |

| Substance | amyloid nucleation score |
| --- | --- |
| VVTRDQLYQ | -0.817 ± 1.7 |
| TEDDYYSGLRRGKDKEGCSF | -0.084 ± 0.44 |
| ERTICSVITMNHGSSAYQGS | -0.081 ± 0.47 |
| YSLSRCSSEDMSYVYWCSRS | 0.119 ± 0.32 |
| GGDSQCVLTGFWYCSTWGKG | 6.438 ± 0.056 |
| WSLWLRRDFSR | 0.76 ± 0.61 |
| DAYMMLFLYSPVWECFLMKG | -0.084 ± 0.28 |
| VRVLGVIMYARLLPVGLWGY | inactive |
| RLARWPEPLIRCFAS | 0.594 ± 0.55 |
| LFGSEVTWYLTSGCDKPFLH | 0.087 ± 0.48 |
| KRCSYRS | 0.07 ± 0.6 |
| ILWPGWDYTKKIVFSCLMVI | -0.613 ± 0.29 |
| MTHAFLRWSYLFRNIWMHVF | 0.349 ± 1.2 |
| CTVRFIYRKLN | -0.325 ± 0.33 |
| RARCFHSSLVVRLLRQTAER | 0.192 ± 1 |
| LVFVTWLSMHVNTTGVFSLS | 0.242 ± 0.41 |
| RCCSFRLYLFTEG | 4.78 ± 0.068 |
| SWNRGVLESHKHAYFALPQF | 0.417 ± 0.24 |
| TLVFRYKSDGCQSLRVRLTF | 0.084 ± 0.32 |
| VRRVPKLVHAADLELWAGSE | -0.754 ± 1.1 |
| VIFSNWVTAGFACFMHLLVR | 0.398 ± 0.9 |
| PGVECACRVSNATNVDGLDL | -0.168 ± 0.5 |
| TYFWGSLIPEWWLFELYPLE | 1.66 ± 0.32 |
| LSILSGWNTE | 0.146 ± 0.32 |
| GDTYHNYVWRLDACSTLPWY | -0.547 ± 0.53 |
| YFDLWALSVLCCFFGVNSPF | 5.69 ± 0.087 |

| Substance | amyloid nucleation score |
| --- | --- |
| SGGSEELLRVVMVSSMKGPW | -0.254 ± 0.81 |
| VSHDGGLLRVWFMLALREGN | 0.003 ± 0.49 |
| VNKHL | -0.329 ± 0.36 |
| LGCSFR | -0.065 ± 1.4 |
| NMFTFLSKRR | -0.928 ± 0.4 |
| KSESDL | inactive |
| PICCLLQLLGDSGWMCCSAW | 6.538 ± 0.061 |
| AMYFTWFVHFGAYRVRSIEK | 1.48 ± 0.48 |
| VREGPRSRSGG | 0.149 ± 0.41 |
| SFRAKDG | inactive |
| GFAWYDYMLQYIVVLVGLYN | -0.159 ± 1.4 |
| GTFVEISRYIDGCHLVFGNR | 2.38 ± 0.16 |
| IMVTDKLSTCAETYIDISW | -0.164 ± 0.75 |
| RIKHERLIVFVMNLDINQ | 4.3 ± 0.096 |
| FASRVCMRSNQKIPAWQLWS | -0.359 ± 0.29 |
| FVLQWRNIRVVDLRMRPYPK | 0.508 ± 0.28 |
| WGLLLE | 4.13 ± 0.094 |
| SAAGT | 0.49 ± 0.66 |
| YSECQLSRARD | inactive |
| RYPTGAKKLQMLNDVLMLYR | -0.479 ± 0.3 |
| NGYIKRVFFSVNMFSMHTSF | 0.079 ± 0.48 |
| GYCLVYLAIGGFARILGYPV | -0.461 ± 1.1 |
| RTGPLSVASGAVPYGYQPWL | -0.203 ± 0.62 |
| WDLLLWSVNRDRRV | 1.47 ± 0.55 |
| QLRAYEFGWETREELNSRPY | -1.64 ± 2.4 |
| LSRTKGKAQCLGQVGRMRVL | 0.294 ± 0.54 |

| Substance | amyloid nucleation score |
| --- | --- |
| GFGPTIYSFRSSGQGNGLMP | -0.3 ± 0.27 |
| MSMVNKTSWCYLFCNLRVVY | -1.08 ± 0.86 |
| HSFGKTFGDCYRRHSYLVNE | -0.437 ± 0.41 |
| NTKSSVSYYFFMGIIFFSEI | 0.355 ± 0.32 |
| GSRHFRDSVLSDVNVWYLKN | -0.026 ± 0.35 |
| ACDTS | 0.693 ± 0.45 |
| WGNTRYGTAASVCVTEVKGS | 0.048 ± 0.4 |
| QSLFFPFARFVTNILRYYKF | -0.531 ± 0.45 |
| LWWLHGDLLLSWGFRMLWPL | 0.117 ± 0.78 |
| NHVLVVGISNLSSCHWMPNF | 3.14 ± 0.12 |
| VRVISLEVLGYFCPRRLAGA | inactive |
| FLYVVARY | 0.19 ± 0.71 |
| VFGVKVRDCASANGVFGWSS | -0.14 ± 1.4 |
| YMLGREMS | inactive |
| EKILLG | -1.8 ± 2.4 |
| FADERIGYSIK | -0.336 ± 0.44 |
| FHIQEANIFRE | -0.17 ± 0.24 |
| GYNKHLGNSGSYVHQNGAQF | 1.06 ± 0.39 |
| VRCIVTERLTLAMDW | 0.199 ± 0.47 |
| TLYIYAMEDSGGFEDGGMCI | 4.18 ± 0.1 |
| HDASSFSLMRKFRCGC | 0.333 ± 0.69 |
| VPALQQIPYCMI | 0.524 ± 0.57 |
| FWIWVCSDLLLD | 0.423 ± 0.43 |
| RQLTSVCYKSVDGE | 0.516 ± 0.93 |
| FFLSLARVGVILHPMMVLTG | -0.35 ± 0.64 |
| DAIHVWCICRKSLVFILRNS | 0.086 ± 1 |

| Substance | amyloid nucleation score |
| --- | --- |
| HLHFTILY | 2.55 ± 0.28 |
| LHGLNF | 0.843 ± 0.74 |
| AFVIFVYNKSIAQIWHFRGY | -0.797 ± 0.37 |
| IFATTIFLLGTRTKLMSG | 0.971 ± 0.65 |
| IVNVAGNV | 0.803 ± 0.45 |
| EVSLLSFLE | 0.68 ± 0.39 |
| VIGLVLARLYFVQIEVLLHR | 1.24 ± 0.61 |
| WLLLNDSFSTRHLFMPRSKW | -0.381 ± 0.75 |
| GARYNASDRGEASYLIEHCG | -0.531 ± 0.99 |
| LNTCLFISDTAVFIMASYMV | 3.06 ± 0.45 |
| LGLGDGLLVRFNKFCGLMGR | -0.153 ± 1.2 |
| SFLLYGLFAYVSAYIRDICA | -0.166 ± 0.38 |
| GGQRWELLFLTRGPGRRWQG | 0.2 ± 1.2 |
| CVTAVIRDGWGWNYCCRDHR | inactive |
| GIPSKTFDVCSSPNIKSILF | 0.317 ± 1.2 |
| YSFGVSTWLI | -0.396 ± 0.74 |
| GTFDSN | 0.045 ± 0.46 |
| SARYL | 0.496 ± 0.7 |
| DWGERRLSRFNGAYSVVTMV | 0.599 ± 0.6 |
| FALGCF | -0.079 ± 0.36 |
| SVFSLVYGKN | 0.685 ± 0.81 |
| YSFALSVG | 0.874 ± 0.43 |
| SFYLIPPSCGYISHFGISTG | inactive |
| FNCLMALIFPDVLDCSYSVD | 1.26 ± 0.9 |
